Key:
[1] = target: T1, human TROP-2 (hTROP-2) protein endogenously expressed on the cell surface of human cancer cell lines (human, UniProt P09758 27-323); assay: FACS on PK-59 cells, 0.1 µg antibody
T1 construct: on PK-59, BxPC-3 and other human cancer cell lines, or in human tissue sections; also called TACSTD2; GA733-1
T1 sequence: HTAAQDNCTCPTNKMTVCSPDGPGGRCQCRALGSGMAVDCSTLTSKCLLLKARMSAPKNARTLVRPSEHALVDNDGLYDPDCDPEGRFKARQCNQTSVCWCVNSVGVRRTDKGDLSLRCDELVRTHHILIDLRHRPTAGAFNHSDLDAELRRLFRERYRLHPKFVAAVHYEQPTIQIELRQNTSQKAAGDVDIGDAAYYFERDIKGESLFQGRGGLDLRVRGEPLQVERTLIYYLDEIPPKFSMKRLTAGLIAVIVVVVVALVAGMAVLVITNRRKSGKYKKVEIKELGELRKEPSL
Experimental: (§1) Cancer cells were removed from a culture dish by a trypsin treatment, and a cell suspension was then prepared (cell density: 2×10⁶ cells/mL). An anti-hTROP-2 monoclonal antibody (0.1 μg) was added to 100 μL of the cell suspension, and they were then reacted at 4° C. for 20 minutes. The reaction solution was washed with PBS, and it was then reacted with PE-labeled anti-mouse IgG (BD Biosciences Pharmingen) (0.1 μg) (at 4° C. for 30 minutes). Thereafter, the resultant was analyzed by FACSCalibur (Becton, Dickinson and Company).
(§2) Subsequently, the reactivity of the generated anti-hTROP-2 monoclonal antibodies with human cancer cell lines (in which an hTROP-2 protein was endogenously expressed on the cell surface) was examined by FACS analysis.

[2] = target: T1, human TROP-2 (hTROP-2) protein …; assay: FACS on BxPC-3 cells, 0.1 µg antibody
Experimental: as §1, §2

Table 9 peptide No. 26 = target: T2, Table 9 peptide No. 26; assay: PEPSCAN/CLIPS peptide ELISA, 1 µg/mL antibody
T2 sequence (peptide): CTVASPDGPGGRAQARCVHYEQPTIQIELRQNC

mean fluorescence intensity relative to PE-labeled anti-mouse IgG alone [1]: 122 times
mean fluorescence intensity relative to PE-labeled anti-mouse IgG alone [2]: 121 times
binding of K5-116-2-1 (Table 9 peptide No. 26): 1220
B1: anti-hTROP-2 monoclonal antibody clone K5-116-2-1 (antibody, V domains shown)
VH: QVQLQQPGAELVRPGASVKLSCKASGYTFTSYWITWVKQRPGQGLEWIGNIYPSDSYTNYNQKFRDKATLTVDKSSSTAYMQLSSPTSEDSAVYYCSALFDYWGQGTTLTVSS
VL: DILLTQSPAILSVSPGERVSFSCRASQSIGTSIHWYQQRTNGSPRLLIKYASESISGIPSRFSGSGSGTDFILSINSVESEDIADYYCQQSNSWPFTFGSGTKLEIK
notes: mouse IgG2a; hybridoma FERM BP-11253
